Laboratory results published in US20130096072A1 (Genentech, published 2013).
Each block holds one binder with its values, some of them ahead of it. Bridges are numbered along the chain shown (N, C = ends). Where no end group is shown, it is not given here.

Columns and labels:
[1] = target: scHGF (non-cleavable form of full-length pro-HGF with a mutated cleavage site) (human, UniProt P14210 32-728); assay: cell-based or functional assay
[2] = target: T1, scHGF β-chain (zymogen-like HGF β, residues Asn479 to Ser728, R494E, C-terminal His-tag) (human, UniProt P14210 479-728); assay: BLI, peptide-dependent activation of zHGF β binding to surface immobilized Met ECD
T1 construct: Expressed in insect cells; also called zHGF β; zymogen-like form of HGF β; not shown: C-terminal His-tag
Method: (§1) Met binding assays were carried out utilizing the OctetRed™ biolayer interferometry instrument (ForteBio, Inc.) as reported previously (Landgraf, K. E. et al. (2010) J Biol Chem 285: 40362-72). Biotinylated Met ECD (Sema/PSI-AviTag) was captured on the surface of streptavidin optical sensor tips (SA biosensors, ForteBio, Inc.), and transferred into buffer containing 0.5 μM scHGF β-chain variants in the presence of increasing concentration of indicated peptides. Association and dissociation reactions were monitored to ensure reversible binding between scHGF β and Met. Binding was quantified using the steady-state levels of surface response from the association reaction. Equilibrium constants were derived by least squares fitting of the titration data to a single-site binding equation. Errors reported are ±stdev of n=3 independent experiments.

[3] = target: T1, scHGF β-chain (zymogen-like HGF β, …); assay: BLI (OctetRed) scHGF β activation/Met binding assay: peptide titrated into 0.5 µM scHGF β over biotinylated Met Sema/PSI on streptavidin tips; steady-state single-site fit
Method: as §1
Based on the finding that the consensus ZAPs contain features consistent with binding and inserting into the activation pocket, several related peptides were synthesized and utilized in a previously established scHGF β activation assay to assess their affinities and ability to active Met binding (Landgraf, K. E. et al. (2010) J Biol Chem 285: 40362-72). Since scHGF β can only weakly interact with the Met Sema-PSI domain compared to the active HGF β form, biolayer interferometry was used in the activation assay to measure the ability of a peptide to directly enhance the binding affinity of scHGF β to a streptavidin sensor surface coated with biotinylated Met (Landgraf, K. E. et al. (2010) J Biol Chem 285: 40362-72). Thus, titration of an activator peptide should result in a significant increase in the surface response signal due to enhanced scHGF β binding to Met.

[4] = target: T1, scHGF β-chain (zymogen-like HGF β, …); assay: BLI scHGF β activation/Met binding assay
[5] = target: T1, scHGF β-chain (zymogen-like HGF β, …); assay: activity-based phage sorting: library with 0.5 µM scHGF β in solution, complex captured on a Met Sema-PSI coated plate; the clones as a group are plotted in FIG. 9B
Method: Where activity-based sorting was conducted, the phage library was incubated in solution with 0.5 μM scHGF β at 4° C. then the mixture was applied to a Maxi-Sorp plate coated with 5 μg/ml Met Sema-PSI ECD protein for capture of activated complex. To analyze phage clones from the activity-based sorting two ELISAs were carried out separately to analyze binding and activity. The first ELISA measured direct phage binding to wells coated with 5 μg/ml scHGF β relative to a BSA control. The second activity ELISA measured phage binding to wells coated with 5 μg/ml Met in the presence or absence (negative control) of 0.5 μM scHGF β in solution. The data from these two ELISAs were plotted with direct binding on the y-axis and Met capture (activity) on the x-axis.
The new 15-mer ZAP-gene VIII phage library contained two main regions that were preferentially shielded from hard-randomization, the N-terminal motif which inserted into the activation pocket and a portion of the reverse turn motif that packs against the protein surface in the bound state (FIG. 8A). […] Phage clones from the solution sort and activity-based sort were sequenced and subjected to a 2-dimensional ELISA analysis, where the clones were analyzed for (i) direct scHGF β binding and (ii) the ability of phage clones to be captured by Met only in the presence of scHGF β.

T1 sequence (P14210 479-728 R494E): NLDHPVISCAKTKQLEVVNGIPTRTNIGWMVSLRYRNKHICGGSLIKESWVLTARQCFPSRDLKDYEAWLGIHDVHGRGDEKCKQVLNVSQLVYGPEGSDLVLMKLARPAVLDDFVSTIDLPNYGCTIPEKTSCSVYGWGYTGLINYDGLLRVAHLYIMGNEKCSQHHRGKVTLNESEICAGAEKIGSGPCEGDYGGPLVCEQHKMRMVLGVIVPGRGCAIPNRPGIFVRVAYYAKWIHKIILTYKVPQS
Sequence of scHGF (non-cleavable form of full-length pro-HGF with a mutated cleavage site) (P14210 32-728 limits assumed, stated change not applied): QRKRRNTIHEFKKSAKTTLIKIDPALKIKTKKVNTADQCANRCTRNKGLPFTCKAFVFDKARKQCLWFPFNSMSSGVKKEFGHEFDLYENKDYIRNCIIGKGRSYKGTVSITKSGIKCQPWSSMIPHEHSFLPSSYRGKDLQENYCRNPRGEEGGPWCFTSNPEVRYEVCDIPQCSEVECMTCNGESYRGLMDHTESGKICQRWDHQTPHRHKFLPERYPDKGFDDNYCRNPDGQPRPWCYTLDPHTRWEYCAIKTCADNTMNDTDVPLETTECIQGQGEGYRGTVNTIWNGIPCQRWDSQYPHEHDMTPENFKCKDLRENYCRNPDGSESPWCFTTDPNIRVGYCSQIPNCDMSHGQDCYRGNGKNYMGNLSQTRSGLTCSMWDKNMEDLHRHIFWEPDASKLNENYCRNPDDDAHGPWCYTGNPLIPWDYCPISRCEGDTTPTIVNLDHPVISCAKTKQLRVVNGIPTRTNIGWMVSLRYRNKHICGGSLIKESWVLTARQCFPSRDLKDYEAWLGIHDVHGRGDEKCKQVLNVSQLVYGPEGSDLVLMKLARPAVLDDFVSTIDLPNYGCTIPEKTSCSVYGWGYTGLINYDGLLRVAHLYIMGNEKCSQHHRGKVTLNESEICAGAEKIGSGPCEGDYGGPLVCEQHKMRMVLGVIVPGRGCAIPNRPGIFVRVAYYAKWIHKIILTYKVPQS

- fold improvement over previous activators [2]: > 90 fold
- Kd [3]: 34 µM
- fold more potent than the peptides derived from the native N-terminus of the β-chain of HGF [4]: ~60 fold
B1: IVGG.14 peptide (peptide)
peptide: IVGGYPWWMDV-NH2
notes: Synthetic peptide; also called possibly ZAP.14
- EC50, BxPC-3 cell survival assay, peptide titrated with scHGF [1]: ~20 µM

- binding result [5]: binds
Binder: IIGGCPYWMDREECI (disulfide 5-14) [ZAP.03]
